Patent publication US9708382B2, “Peptide library” (Daiichi Sankyo Company, Limited, priority 2011, dated 2017)

Tests used:
[1] = target: T1, Recombinant Mouse EphA2/Fc Chimera (mEphA2/Fc) (Mus musculus, UniProt Q03145); assay: Phage ELISA on solid-phase immobilized mEphA2/Fc; type: binding; settings: phage-displayed peptide, compared with wild-type TACI_d2
T1 construct: purchased R&D systems, Inc
Procedure: (§1) As to 3 clones (α-EphA2 #1 to #3: corresponding to SEQ ID NOs: 3 to 5, respectively, in the Sequence Listing and to Nos. 2 to 4, respectively in FIG. 4) selected from the Escherichia coli colonies after the final round of panning with hEphA2 as a target molecule, an Escherichia coli suspension with OD600 nm=0.3 was prepared using 2×YT/Amp/1% Glu. The Escherichia coli cells of each clone were shake-cultured at 37° C. and allowed to grow until OD600 nm=0.5. A sufficient amount of helper phages M13K07 was added thereto to infect the cells at 37° C. for 30 minutes. After addition of 2×YT/Amp/Kan/0.25 mM IPTG, the helper phage-infected Escherichia coli was shake-cultured overnight at 22° C. 20% PEG/2.5 M NaCl solution was added to the recovered culture supernatant to precipitate phages. The precipitated phages were suspended in PBS. This phage stock solution and a series of two-fold dilutions with PBS were used in phage ELISA. An Escherichia coli TG-1 strain having a pCANTAB 5E vector containing the wild-type TACI_d2 gene was also subjected to the same operation as above to prepare phages.
Each of hEphA2, BSA, Recombinant Human BAFF/BLyS/TNFSF13B (R&D systems, Inc.; a polypeptide consisting of amino acids from Ala at position 134 to Leu at position 285 in human BAFF (UniProtKB/Swiss-Prot Accession # Q9Y275) and containing an N-terminally linked histidine tag, etc.; hereinafter referred to as “hBAFF”), and Recombinant Mouse EphA2/Fc Chimera, CF (R&D systems, Inc.; a polypeptide consisting of amino acids from Ala at position 22 to Ala at position 535 in mouse EphA2 (NCBI Accession No. #AAA82113) and containing a C-terminally linked Fc region (from Pro at position 100 to Lys at position 330) of human immunoglobulin G1 (hereinafter, referred to as “hIgG1”); hereinafter, referred to as “mEphA2/Fc”) was added to a Maxisorp plate and solid-phase immobilized overnight at 4° C. […] After washing of the Maxisorp plate with TBST again, the amount of a phage bound with the protein solid-phase immobilized on the plate was detected as absorbance at a wavelength of 405 nm using ELISA POD.

[2] = target: T2, human EphA2 expressed on cell surface (Homo sapiens, UniProt P29317); assay: Flow cytometry binding to human EphA2-expressing HEK293T cells; type: cell-based; settings: phage-displayed peptide, HEK293T cells transfected with human EphA2, human ErbB2-expressing cells as negative control
T2 construct: expressed in transfected cells; host or cells: HEK293T
T2 sequence (P29317 24-976): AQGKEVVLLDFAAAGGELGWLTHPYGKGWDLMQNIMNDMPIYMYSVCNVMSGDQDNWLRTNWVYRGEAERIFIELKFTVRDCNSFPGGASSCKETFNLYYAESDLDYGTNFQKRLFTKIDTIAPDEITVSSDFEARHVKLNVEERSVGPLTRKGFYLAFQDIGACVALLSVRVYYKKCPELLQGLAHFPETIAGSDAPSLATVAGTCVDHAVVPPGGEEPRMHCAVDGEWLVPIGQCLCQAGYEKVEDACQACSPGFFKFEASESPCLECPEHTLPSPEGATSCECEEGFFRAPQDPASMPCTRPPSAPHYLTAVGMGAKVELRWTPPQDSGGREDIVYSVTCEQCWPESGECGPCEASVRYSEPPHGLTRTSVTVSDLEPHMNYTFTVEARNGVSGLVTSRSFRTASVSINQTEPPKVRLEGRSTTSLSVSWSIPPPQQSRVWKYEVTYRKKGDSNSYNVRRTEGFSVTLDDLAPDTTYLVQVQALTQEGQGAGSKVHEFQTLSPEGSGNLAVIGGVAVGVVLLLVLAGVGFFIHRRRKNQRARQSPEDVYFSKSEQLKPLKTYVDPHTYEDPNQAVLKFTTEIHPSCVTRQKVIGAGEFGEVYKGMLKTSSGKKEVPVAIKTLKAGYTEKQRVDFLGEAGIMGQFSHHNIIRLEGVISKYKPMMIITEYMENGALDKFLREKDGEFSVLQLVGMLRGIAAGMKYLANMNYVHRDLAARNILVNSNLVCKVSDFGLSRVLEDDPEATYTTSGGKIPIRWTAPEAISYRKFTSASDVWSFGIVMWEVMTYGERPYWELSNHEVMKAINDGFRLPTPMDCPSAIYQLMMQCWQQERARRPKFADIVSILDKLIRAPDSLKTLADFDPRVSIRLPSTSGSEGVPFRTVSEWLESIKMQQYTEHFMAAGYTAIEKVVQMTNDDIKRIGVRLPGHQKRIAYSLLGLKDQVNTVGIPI
Procedure: Human embryonic kidney cells (HEK293T cells) were cultured at 37° C. in the presence of 5% CO2 using a Dulbecco's modified eagle's medium (hereinafter, referred to as “DMEM”; manufactured by GIBCO, Life Technologies Corp.) containing 10% fetal bovine serum (FBS) (hereinafter, this medium is referred to as “DMEM-10% FBS”). For use in transfection or flow cytometry, the cells were dissociated from the plate for culture using 0.05% trypsin-EDTA (GIBCO), and the cell suspension was then centrifuged to recover cells, which were then resuspended in DMEM-10% FBS and used.
The HEK293T cells were transfected with a pcDNA-DEST40 Gateway vector (manufactured by Invitrogen Corp.) having an insert of the human EphA2 gene or the human ErbB2 gene as a negative control using Lipofectamine 2000 (manufactured by Invitrogen Corp.) according to the instructions.
The transfected cells were recovered. The recovered cells were suspended in a FACS buffer (PBS containing 5% FBS) and applied to a nylon mesh. The solution was dispensed in an amount of 5×10^5 cells/well to 96 Well Cell Culture Cluster Round Bottom With Lid (manufactured by Costar, Corning Inc.) and centrifuged to remove a supernatant. The phage stock solution prepared in the paragraph 1) of Example 4 was added to the resulting cells at a concentration of 50 μL/well, and the mixture was left standing at 4° C. for 30 minutes. A FACS buffer was added thereto at a concentration of 150 μL/well, and the mixture was centrifuged to remove a supernatant. Again, a FACS buffer was added thereto at a concentration of 200 μL/well, and the mixture was centrifuged to remove a supernatant (hereinafter, cells were washed in the same way as this operation). An Anti-M13 antibody diluted 100-fold was added to the obtained cells at a concentration of 50 μL/well as a primary antibody, and the mixture was left standing at 4° C. for 30 minutes, followed by washing of the cells. Subsequently, FLUORESCEIN-CONJUGATED GOAT IGG FRACTION TO MOUSE IGG (manufactured by Cappel, MP Biomedicals, LLC) diluted 1000-fold was added thereto as a secondary antibody, and the mixture was left standing at 4° C. for 30 minutes, followed by washing of the cells. The obtained cells were suspended in 250 μL of a FACS buffer and subjected to Cytomics FC 500 Flow Cytometry System (manufactured by Beckman Coulter, Inc.). Fluorescently stained cells were detected.

[3] = target: T3, Recombinant Human BAFF/BLyS/TNFSF13B (hBAFF) (Homo sapiens, UniProt Q9Y275); assay: Phage ELISA on solid-phase immobilized hBAFF; type: binding; settings: phage-displayed peptide, absorbance at 405 nm
T3 construct: amino acids from Ala at position 134 to Leu at position 285 in human BAFF; histidine tag (N); purchased R&D systems, Inc
T3 sequence (Q9Y275 134-285): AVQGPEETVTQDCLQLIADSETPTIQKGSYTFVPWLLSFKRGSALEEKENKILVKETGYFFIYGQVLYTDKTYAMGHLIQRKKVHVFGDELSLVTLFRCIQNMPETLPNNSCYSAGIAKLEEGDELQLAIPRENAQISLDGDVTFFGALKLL
Procedure: as §1, with “prepare phages. […]” for “prepare phages.”

APRIL = target: T4, APRIL (Homo sapiens, UniProt O75888); settings: compared with whole extracellular region (TACI_d1d2); cited from earlier work
T4 sequence (O75888 105-250): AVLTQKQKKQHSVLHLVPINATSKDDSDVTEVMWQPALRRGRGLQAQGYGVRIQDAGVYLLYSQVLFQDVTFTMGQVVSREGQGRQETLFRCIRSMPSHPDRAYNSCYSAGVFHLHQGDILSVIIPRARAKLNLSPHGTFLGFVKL

BAFF = BAFF (Homo sapiens, UniProt Q9Y275); settings: compared with whole extracellular region (TACI_d1d2); cited from earlier work
Sequence of BAFF (Q9Y275 134-285 limits assumed, species assumed): as the sequence (Q9Y275 134-285) above

T1 sequence (Q03145 22-535, change not shown): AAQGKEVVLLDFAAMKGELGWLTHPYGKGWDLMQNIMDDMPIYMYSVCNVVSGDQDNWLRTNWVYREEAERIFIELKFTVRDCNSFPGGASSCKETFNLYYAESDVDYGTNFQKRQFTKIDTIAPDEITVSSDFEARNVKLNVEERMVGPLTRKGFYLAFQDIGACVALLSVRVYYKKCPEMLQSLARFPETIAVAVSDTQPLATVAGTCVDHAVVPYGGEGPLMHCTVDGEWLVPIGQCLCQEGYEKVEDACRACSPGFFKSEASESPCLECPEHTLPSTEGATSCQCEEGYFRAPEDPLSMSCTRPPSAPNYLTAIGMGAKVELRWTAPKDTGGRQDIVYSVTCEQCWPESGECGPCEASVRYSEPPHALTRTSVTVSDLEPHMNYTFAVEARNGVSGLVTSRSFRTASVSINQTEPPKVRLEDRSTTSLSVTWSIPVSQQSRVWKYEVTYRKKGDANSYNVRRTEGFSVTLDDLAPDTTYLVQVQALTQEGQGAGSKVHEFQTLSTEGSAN

Substance: SLSCRKEQGKHYLLKEYDCDSCASECGYHPDYCAYFCEN (Amino acid sequence of human EphA2-binding peptide a-EphA2 #3) [α-EphA2 #3]
- cross reactivity to mEphA2 [1]: cross reactivity to mEphA2 at a level equivalent to wild-type TACI_d2

Substance: SLSCRKEQGKMYLLKEWDCASCASACGNHPHYCAYFCEN (Amino acid sequence of human EphA2-binding peptide a-EphA2 #2) [α-EphA2 #2]
- cross reactivity to mEphA2 [1]: cross reactivity to mEphA2 at a level equivalent to wild-type TACI_d2
- binding to human EphA2 expressed on cell surface [2]: bound
- binding to human EphA2 expressed on cell surface ([2]; listed as α-EphA2 TACI_d2 #2): specifically bound

Substance: SLSCRKEQGKQYLLREWDCDSCASECGSHPHYCAYFCEN (Amino acid sequence of human EphA2-binding peptide a-EphA2 #1) [α-EphA2 #1]
- cross reactivity to mEphA2 [1]: stronger cross reactivity
- binding to human EphA2 expressed on cell surface [2]: bound
- binding to human EphA2 expressed on cell surface ([2]; listed as α-EphA2 TACI_d2 #1): specifically bound

Substance: wild-type TACI_d2: wild-type C-terminal cysteine-rich domain of TACI, binds APRIL and BAFF
- binding to the endogenous ligand hBAFF [3]: bind to the endogenous ligand hBAFF
- binding activity against APRIL (APRIL): equivalent to the binding activity of the whole extracellular region (TACI_d1d2)
- binding activity against BAFF (BAFF): equivalent to the binding activity of the whole extracellular region (TACI_d1d2)
